Experimental data: patent publication US20200129532

Target: T1, HA-tagged VDR (vitamin D receptor), wild type (UniProt P11473)
T1 sequence: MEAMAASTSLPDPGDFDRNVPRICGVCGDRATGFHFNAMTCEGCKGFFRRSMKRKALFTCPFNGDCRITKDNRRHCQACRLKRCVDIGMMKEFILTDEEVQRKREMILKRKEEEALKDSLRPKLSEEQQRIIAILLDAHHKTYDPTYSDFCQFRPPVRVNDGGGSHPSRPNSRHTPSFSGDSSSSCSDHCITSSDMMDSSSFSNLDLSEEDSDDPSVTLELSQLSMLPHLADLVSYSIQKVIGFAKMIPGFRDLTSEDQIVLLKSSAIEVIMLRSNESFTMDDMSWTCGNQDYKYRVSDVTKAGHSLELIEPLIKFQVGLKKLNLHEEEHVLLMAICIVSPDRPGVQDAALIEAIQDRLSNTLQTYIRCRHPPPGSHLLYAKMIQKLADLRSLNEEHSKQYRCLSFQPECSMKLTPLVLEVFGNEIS

enzymatically dead PCAF (D608A)
VDR acetylation: but not with the enzymatically dead PCAF D608A mutant
